Results: patent US20220265759A1 (BOARD OF TRUSTEES OF THE UNIVERSITY OF ILLIOIS, published 2022)

T1: mouse eNOS (mouse, UniProt P70313 2-1202)
T1 construct: whole, on cells; Endogenous protein in mouse wound homogenates used for Co-IP; also called eNOS (mouse wounds)
T1 sequence (looked up): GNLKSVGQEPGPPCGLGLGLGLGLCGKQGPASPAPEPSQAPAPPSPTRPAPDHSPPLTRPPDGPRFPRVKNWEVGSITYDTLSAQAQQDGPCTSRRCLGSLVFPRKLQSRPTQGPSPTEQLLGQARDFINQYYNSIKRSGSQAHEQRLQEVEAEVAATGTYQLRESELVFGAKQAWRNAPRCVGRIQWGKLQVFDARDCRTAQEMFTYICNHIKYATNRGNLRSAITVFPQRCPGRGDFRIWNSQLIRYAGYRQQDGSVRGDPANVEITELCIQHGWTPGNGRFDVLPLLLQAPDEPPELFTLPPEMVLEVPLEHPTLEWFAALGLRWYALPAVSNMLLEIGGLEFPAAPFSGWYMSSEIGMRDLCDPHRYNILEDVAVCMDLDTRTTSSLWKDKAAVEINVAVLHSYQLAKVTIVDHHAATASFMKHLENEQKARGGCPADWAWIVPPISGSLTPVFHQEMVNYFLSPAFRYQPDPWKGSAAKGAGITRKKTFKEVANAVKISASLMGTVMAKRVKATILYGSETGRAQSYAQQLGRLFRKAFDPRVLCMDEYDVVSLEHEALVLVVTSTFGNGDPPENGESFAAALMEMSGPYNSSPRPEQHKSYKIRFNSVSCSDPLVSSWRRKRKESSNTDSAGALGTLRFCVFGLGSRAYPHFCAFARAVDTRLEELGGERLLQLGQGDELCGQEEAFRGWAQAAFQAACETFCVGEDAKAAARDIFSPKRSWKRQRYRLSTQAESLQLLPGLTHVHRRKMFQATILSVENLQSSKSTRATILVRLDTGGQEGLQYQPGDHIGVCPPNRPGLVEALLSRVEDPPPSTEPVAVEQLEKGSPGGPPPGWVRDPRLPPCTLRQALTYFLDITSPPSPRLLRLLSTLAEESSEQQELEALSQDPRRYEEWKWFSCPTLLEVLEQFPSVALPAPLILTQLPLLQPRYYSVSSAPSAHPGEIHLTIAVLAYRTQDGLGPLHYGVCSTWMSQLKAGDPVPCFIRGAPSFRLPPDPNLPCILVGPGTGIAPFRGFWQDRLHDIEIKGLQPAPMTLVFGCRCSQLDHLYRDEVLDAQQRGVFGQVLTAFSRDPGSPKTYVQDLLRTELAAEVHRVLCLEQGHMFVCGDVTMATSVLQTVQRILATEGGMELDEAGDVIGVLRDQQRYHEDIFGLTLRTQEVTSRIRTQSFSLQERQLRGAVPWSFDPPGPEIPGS

B1: mouse CCR10 (receptor, UniProt Q9JL21 1-362, looked up)
chain: MGTKPTEQVSWGLYSGYDEEAYSVGPLPELCYKADVQAFSRAFQPSVSLMVAVLGLAGNGLVLATHLAARRTTRSPTSVHLLQLALADLLLALTLPFAAAGALQGWNLGSTTCRAISGLYSASFHAGFLFLACISADRYVAIARALPAGQRPSTPSRAHLVSVFVWLLSLFLALPALLFSRDGPREGQRRCRLIFPESLTQTVKGASAVAQVVLGFALPLGVMAACYALLGRTLLAARGPERRRALRVVVALVVAFVVLQLPYSLALLLDTADLLAARERSCSSSKRKDLALLVTGGLTLVRCSLNPVLYAFLGLRFRRDLRRLLQGGGCSPKPNPRGRCPRRLRLSSCSAPTETHSLSWDN
notes: whole, on cells; Endogenous protein in mouse wound homogenates used for Co-IP; also called CCR10 (mouse wounds)
B2: human endothelial nitric oxide synthase (eNOS) (enzyme)
chain: GNLKSVAQEPGPPCGLGLGLGLGLCGKQGPATPAPEPSRAPASLLPPAPEHSPPSSPLTQPPEGPKFPRVKNWEVGSITYDTLSAQAQQDGPCTPRRCLGSLVFPRKLQGRPSPGPPAPEQLLSQARDFINQYYSSIKRSGSQAHEQRLQEVEAEVAATGTYQLRESELVFGAKQAWRNAPRCVGRIQWGKLQVFDARDCRSAQEMFTYICNHIKYATNRGNLRSAITVFPQRCPGRGDFRIWNSQLVRYAGYRQQDGSVRGDPANVEITELCIQHGWTPGNGRFDVLPLLLQAPDDPPELFLLPPELVLEVPLEHPTLEWFAALGLRWYALPAVSNMLLEIGGLEFPAAPFSGWYMSTEIGTRNLCDPHRYNILEDVAVCMDLDTRTTSSLWKDKAAVEINVAVLHSYQLAKVTIVDHHAATASFMKHLENEQKARGGCPADWAWIVPPISGSLTPVFHQEMVNYFLSPAFRYQPDPWKGSAAKGTGITRKKTFKEVANAVKISASLMGTVMAKRVKATILYGSETGRAQSYAQQLGRLFRKAFDPRVLCMDEYDVVSLEHETLVLVVTSTFGNGDPPENGESFAAALMEMSGPYNSSPRPEQHKSYKIRFNSISCSDPLVSSWRRKRKESSNTDSAGALGTLRFCVFGLGSRAYPHFCAFARAVDTRLEELGGERLLQLGQGDELCGQEEAFRGWAQAAFQAACETFCVGEDAKAAARDIFSPKRSWKRQRYRLSAQAEGLQLLPGLIHVHRRKMFQATIRSVENLQSSKSTRATILVRLDTGGQEGLQYQPGDHIGVCPPNRPGLVEALLSRVEDPPAPTEPVAVEQLEKGSPGGPPPGWVRDPRLPPCTLRQALTFFLDITSPPSPQLLRLLSTLAEEPREQQELEALSQDPRRYEEWKWFRCPTLLEVLEQFPSVALPAPLLLTQLPLLQPRYYSVSSAPSTHPGEIHLTVAVLAYRTQDGLGPLHYGVCSTWLSQLKPGDPVPCFIRGAPSFRLPPDPSLPCILVGPGTGIAPFRGFWQERLHDIESKGLQPTPMTLVFGCRCSQLDHLYRDEVQNAQQRGVFGRVLTAFSREPDNPKTYVQDILRTELAAEVHRVLCLERGHMFVCGDVTMATNVLQTVQRILATEGDMELDEAGDVIGVLRDQQRYHEDIFGLTLRTQEVTSRIRTQSFSLQERQLRGAVPWAFDPPGSDTNSP
notes: whole, on cells; Endogenous intracellular / membrane-associated protein of human endothelial cells; co-immunoprecipitated from lysates

Experiments:
mouse eNOS = target: T1, mouse eNOS; experiment: Co-IP from mouse wounds (FIG. 4)
calmodulin (CaM) = calmodulin (CaM) (human, UniProt P0DP23 2-149); experiment: Co-IP in endothelial cells; not affected by Myr-CBD7 pretreatment

Row | Binder | binding result (mouse eNOS) | binding result (calmodulin (CaM))
1 | B1 | binds | –
2 | B2 | – | binds
